In the nanobody polyreactivity screen of Harvey et al. (2022):

Assay: yeast display, Sf9 membrane polyspecificity reagent, FACS + sequencing; frameworks hold sequencing errors
Summary of the method: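 Galactose induction of a Saccharomyces cerevisiae BJ5465 synthetic nanobody display library ran 36–48 hours. The cells were then stained for 1 hour at 4 °C with 10% biotinylated, detergent-solubilized Sf9 membrane reagent, pulled down on streptavidin microbeads and FACS-sorted into low and high (top ~1%) gates on expression and reagent-binding fluorescence. Labels for polyreactivity follow the gate of origin.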

Sequence	polyreactivity (PSR sort gate)
QVQLVESGRGLVQAGGSLRISCAASGSIFRVNAMGWYRQAPGKERELVASISKTGTRTYYADSVKGRFTISRDNAKITVYLQMNSLKPEDTAVYYCAADKPRREYDYWGQGTQVTVSS	low polyreactivity
QVQLVESGRGLVQAGGSLRLSCAASARTFPIYAMGCYRQAPWKEREFVAAITYSGGSTYYADSVKGRFTISRDNAKNTVYLQMNSLKPEDTAVYYCAVDGTKPYWHQRYDYSGQGTQVTVSS	low polyreactivity
QVQLVESGRGLVQAGGSLRLSCAASGFIFDYNTMGWYRQAPGKERELVAGITSGGSTYYADSVKGRFTISRDNEKNTFYLQMNSLKPDDTAVYYCATDDDEYYGYDYWGQGTQVTVST	low polyreactivity
QVQLVESGRGLVQAGGSLRLSCAASGFIFHRYAMGWYRQAPGKERELFAAITRTGGRTYYADSVKGRFTISRDNAKNTVYLQMNSLKPEDTEVYYCAAVRTLSYEYWGQGTKVTVSS	high polyreactivity
QVQLVESGRGLVQAGGSLRLSCAASGFTFDGNAMGWYRQAPGIERELFARITWDDGSTYYADSVKGRFTISRDNAKNTVYLQMNSLNPEDTAVYYCAAEWCTDGYQVLPVDYDYWGQGTQVTVSS	low polyreactivity
QVQLVESGRGLVQAGGSLRLSCAASGFTFRTYAMGWYRQSPGKERELDAAITRNGGTYYADSVKGRFTISRDNAKITVYLPMNSLKPEDTARYYCATDPAYWGDLPPEDDYWGQGTQVTVSS	low polyreactivity
QVQLVESGRGLVQAGGSLRLSCAASGGTFYIYAMGWYRQAPGKERELVAVISISDASTYYADSVKGRFTFSRDNAKNTVYLQMNSLKPEDTAVYYCNAKSNPAGSYPSEHSGYDSWGQGTQVTVSS	low polyreactivity
QVQLVESGRGLVQAGGSLRLSCAASGIIFSSYAMGWYRQAPGKERELVAAISYSGGSTYYADSVKGLFSISRDNAKNTVYLEMNCLIPEDTAVYYCAAQGYSPGGYDYWGQGTQVTVSW	low polyreactivity
QVQLVESGRGLVQAGGSLRLSCAASGIIFVKYAMGWYRQAPGKERELVAAISTRGGSTYYADSVKGRFTISRDNAKNTVYLQMNSLNPEDTAVYYCADDATRKSQLPNTVPYDYWGQGTQVTVSS	high polyreactivity
QVQLVESGRGLVQAGGSLRLSCAASGIIFVSYMGWYRQAPGKERELVAAIRWSGGRTYYADSVKGRFTISRDNAKNTVYLQMNSLNPVDTAVYYCAADALRKPKIALYDYWGQGTQVTVSS	high polyreactivity
QVQLVESGRGLVQAGGSLRLSCAASGITFSYYTMGWYRQAPGKERELVAAINWNGGSTYYADSVKGRFTISRDNAKNTVYLQMNSLKPEDTAVYYCAREKWPSQYDYWGQGTQVTVSS	low polyreactivity
QVQLVESGRGLVQAGGSLRLSCAASGRIFHYNAMVWYRQAPRKERELVAAISGSGGSTYYADTVKGRFTISRDIAKNTVYLQMNSLKPEDTADYYCGDKRRTLGGYWGQGTQVTVSS	high polyreactivity
QVQLVESGRGLVQAGGSLRLSCAASGRIFRYYTMGWYRQAPGKERELVATISWNGSNTYYADSVKGRFTISRDNAKNTVYLQMNSLKPEDTAVYYCAAGVLPGLYNGARLFDYWGQGTQVTVSS	low polyreactivity
QVQLVESGRGLVQAGGSLRLSCAASGRIFTKNTMGWYRQAPGKERELVAAIRSRAGSTYYADSVKGRFTISRDNAKNTVYLQMNSLKPEDTAVYYCAVPWFRSVDFDYWGQGTQVTVSS	low polyreactivity
QVQLVESGRGLVQAGGSLRLSCAASGRIFYRYVMGWYRQAPGKERELVAAITSSGGSTYYADSVKGRFTISRDNAKNTVYFQMNSLKPEDTAVYYCSADRYTRYRYNYWGQGTQVTVSS	high polyreactivity
QVQLVESGRGLVQAGGSLRLSCAASGRIFYVYAMGWSRTAPGKERELVAAITQSGGRTYYADSVKGRFTISRDNAKNTVYLQMNSLKPEDTAVYYCAATWLGSRNLVHITLYYWGQGTQVTVSS	low polyreactivity
QVQLVESGRGLVQAGGSLRLSCAASGRIFYYAMGWYRQAPGKERELVAAITRSGGRTYYADSVKGRFTISRDNEKNTVYLQMNSLKPEDTAVYDCAADYGAQLWGYYPTFDYWGQGTQVTVSS	high polyreactivity
QVQLVESGRGLVQAGGSLRLSCAASGRIIGYYTMGWYRQAPGKERELVAAITRDGGSTYYADSVKGRFTISRDNAKNTVYLQMNSLKPEDTAVYYCTAASQSRYFYWGQGTQVTVSS	high polyreactivity
QVQLVESGRGLVQAGGSLRLSCAASGRTFGYYAMGWYIQAPGKERELVAAISYSGGSTYYADSVKGRFKISRDNAKNTVYLQMNSLKPEDTAVYYCAAYLRRYPWYDYWVQGTQVTVSS	high polyreactivity
QVQLVESGRGLVQAGGSLRLSCAASGRTFHYNVMGWYRQAPGKERELVAAITNTGGSTYYADSVKGRFTISRDNAKNTVYLQMNSLKPEDTAVYYCAAVIWGRRYGAYPYEYWGQGTQVTVSS	low polyreactivity
QVQLVESGRGLVQAGGSLRLSCAASGRTFRFNAMGWYRQAPGKEREFVAAITSGGGTYYADSVKGRFTISRDNAKNTVYLQMNSLKPEDTAVYYCAAPRQYYLMDYGGQGTQVTVSS	low polyreactivity
QVQLVESGRGLVQAGGSLRLSCAASGRTFYFYAMGWYRQAPGKEREFVAAITSSGVSTYYADSVKGRFTISRDNAKNTVYFQMISQKPEDSAVYYCAADDWDWENDYWGQGTQVTVSS	low polyreactivity

Sequence	polyreactivity (PSR sort gate)
QVQLVESGRGLVQAGGSLRLSCAASGSIFGAYVMGWYRQAPGKERELVAAITRRGGSTYYADSVKGRFTISRDNAKNTVYLQMNSLKPEDTAVYYCAARRGAGDGYWGQGTQVNVSS	high polyreactivity
QVQLVESGRGLVQAGGSLRLSCAASGSIFGGYGMGWYRQAPGKERELVAAITSGSSTYYADSVKGRFTISRDNAKNTVYLQMNSLKPEDTAVYYCAARPYPHSAYEGDYWGRGTQVTVSS	low polyreactivity
QVQLVESGRGLVQAGGSLRLSCAASGSIFVDYTMGWYRQAPGKERELVARITSGGSTYYADSVKGRFTISRDNAKNSVYLQMNSLKPEDTAVYYCAARPYYRYRNSWREQYYYWGQGTQVTVSS	high polyreactivity
QVQLVESGRGLVQAGGSLRLSCAASGSIFWENAMGWYRQAPGKERELVADITIGGSTNYADSVKGRFTISRDNAKNTVYLQMNILKPEDTAVYYCAAYYYWPKYWYWGYDDWGQGTQVTVSS	low polyreactivity
QVQLVESGRGLVQAGGSLRLSCAASGSIFWYYAMGWYRPSPGKETELVAAIRRGGSTTYADSVKGRFTISRDNAKNTVYLQMNSLKPEDTAVYYCAAEPYYWYRGDYWGQGTQVTVSS	high polyreactivity
QVQLVESGRGLVQAGGSLRLSCAASGSTFAWNAMGWYRQAPGKERELVAAINSGDSTYYADSVKGLFTISRDNAKNTVYLQMNSLKPEDTAVYYCATKYRGVWYTRGQTYYYWGQGTQVNVSS	high polyreactivity
QVQLVESGRGLVQAGGSLRLSCAASGSTFPGNAMGWYRQAPGKERELVAAIRDRGTSTYYADSVKGRFTISRDNAKNTVYLQMNSLKPEDTAVYYCAAASSVAKGRWRLYDYWGQGTQVTVSS	high polyreactivity
QVQLVESGRGLVQAGGSLRLSCAASVNIFRGYTMGRYRQAPGTERELVATITWNGVSTFYADSVKGRFTISRDNAKNTVYLQMHSLKPEDTAVYYCAAYYPSHDYSGFWSDTYEYWGQGTQVTVSS	low polyreactivity
QVQLVESGRGLVQAGGSLRLSCAPSGFTFYRNEMGWYRQAPGKERELVAAITFSGGITYYADSVKGRFTISRDNAKNTVYLQMNSLKPEDTAVYYGAAEGVGPARVYQGGEYNYWGQGTQVTVSS	low polyreactivity
QVQLVESGRGLVQAGGSLRLSCAPSGSNFPPNAMGWYRQAPGKEREFVASITSSGGITNYADSVKGRFTISRDNAKNTVYLQMNSLKPEDTAVYFCAAVQTWRWVYARDYWGQGTQVTVSS	high polyreactivity
QVQLVESGRGLVQAGGSLRVSCAASGNTYLYYGMGWYRHAPGKERELVAAITQSGGTTYYADSVKGRFTISRDNAKNTVYFQMNTLIPEDTAVYYFAATRYYYYWYVYDDRGDYWGQGTQVSVSS	low polyreactivity
QVQLVESGRGLVQAGGSLSLSCAASGITFRPYPMGWYRKAPGKERELVAAISRGGSSTYYADSVKGRFTISRDYAKNTVYLQMISLKPEDTAVYYFAARNNKKYDYWGQGTQVTVSS	high polyreactivity
QVQLVESGRGLVQAGRSLRLSCAASGFIFETYPMGWYRQAPGKVRELVAAISRGASTYYADSVKGRFTISRDNAKNTVYLQMNSLTPEDTAVYNCAAQQGISYGTGVSATNPMDYWGQGTHVTVSS	low polyreactivity
QVQLVESGRGLVQAGVSLRLSCAASGFIFKGYAMGWYRQATGKERELVAAITWSGRTYYADSVKGRFTISRDNAKNTVYLKMNSLKPEDTAVFYCAVDRGRGSTYKYDYWGQGTQVNVSS	low polyreactivity
QVQLVESGRGLVQAGVSLRLSCAASGRIFTNNAMGLYRQAPGKERELVAAINVSGGRTYYADSVKGRFTISRENAKNTVYLQMNSLKPEDTAVYYCNKVKETYMDYWGQGTQVTVSS	high polyreactivity
QVQLVESGRGLVQAGVSLRLSCAASGRTFVLYTMGWYRQAPGKERELVAAITKSGGSTYYADSVKGRFTISRDNAKNTVYLQMNSLKPEDTAVYYCAAARRYYTYYREDYYYWGQGTLVTVSS	high polyreactivity
QVQLVESGRGLVQAVGSLRLSSAASGSIFMWYTMGCYRQAPGKERELVAAISKSGGRTYYADSVKGRFTISRDNAKNTVYLQMNSMKPEDTAVYYCAKLYPYDSPVPDGHQFDYWGQGTQVTVSS	high polyreactivity
QVQLVESGRGLVQEGGSLRLSCAASGFTFYGYAMGWYRQAPGKERELVAAINSGGRTYYADSVKGRFTISRDNAKNSVYLQMNSLKPEDTAVYYCAAVSLYTSDYYWGQGTQVTVSS	high polyreactivity
QVQLVESGRRLVQAGGSLRLSCAASGSTFYGYGMGWYRPAPRQERELVAAITGSGDTTYYADSVKGRFTISRDNAKNTVYLQMNSLKPEDTAVYYCNARWHAEYDYWGQGTQVTVSS	low polyreactivity
QVQLVESGRRLVQAGGSLRLSCAASGSTFYGYGMGWYRQAPGKERELVAAITGSGDTTYYADSVKGRFTISRDNAKNTVYLQLNSLKPEDTAVDYCNARWHAEYDYWGQGTQVTVSS	low polyreactivity
QVQLVESGRRLVQAGGSLRLTCAASGSTFTRYAMGWYRQAPGKERELVASISGSGGRTYYADSVKGRFTISRDNAMNTVYLQMNSLKPEDTAVYYCAAKITRRYYPGYLFDYWGQGNQVTVSS	high polyreactivity
